Assay results taken from US10766960 (dated 2020).
Where two headings read alike, the source gives them in different places.

T1: FcgRIa (human, UniProt P12314)
T1 chain: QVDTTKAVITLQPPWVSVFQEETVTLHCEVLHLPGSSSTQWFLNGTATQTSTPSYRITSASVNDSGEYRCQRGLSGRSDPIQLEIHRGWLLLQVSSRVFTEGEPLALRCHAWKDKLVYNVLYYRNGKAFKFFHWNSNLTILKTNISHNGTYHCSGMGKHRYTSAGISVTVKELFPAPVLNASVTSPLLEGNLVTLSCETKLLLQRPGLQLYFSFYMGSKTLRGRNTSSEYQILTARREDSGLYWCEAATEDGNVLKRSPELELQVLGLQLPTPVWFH

T2: FcgRIIb (human, UniProt P31994)
T2 chain: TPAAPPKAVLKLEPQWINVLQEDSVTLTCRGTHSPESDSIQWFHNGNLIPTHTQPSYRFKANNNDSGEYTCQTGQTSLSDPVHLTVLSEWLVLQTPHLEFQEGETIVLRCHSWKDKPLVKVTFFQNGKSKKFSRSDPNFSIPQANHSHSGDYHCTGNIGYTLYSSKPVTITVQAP

T3: FcgRIIa R (human, UniProt P12318)
T3 chain: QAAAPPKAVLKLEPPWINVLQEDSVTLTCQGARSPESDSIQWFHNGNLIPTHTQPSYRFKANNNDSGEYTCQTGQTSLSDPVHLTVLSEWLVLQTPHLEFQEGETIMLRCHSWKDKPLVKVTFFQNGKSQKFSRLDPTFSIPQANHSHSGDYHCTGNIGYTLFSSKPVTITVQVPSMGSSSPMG

T4: FcgRIIa H (human, UniProt P12318)
T4 chain: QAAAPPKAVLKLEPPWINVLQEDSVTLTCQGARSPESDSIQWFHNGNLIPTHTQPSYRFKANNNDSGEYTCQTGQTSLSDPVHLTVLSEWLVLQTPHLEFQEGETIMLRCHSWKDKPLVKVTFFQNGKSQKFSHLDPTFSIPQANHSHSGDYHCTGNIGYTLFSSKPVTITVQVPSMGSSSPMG


Assays:
Assay in all cases: SPR
FcgRIa = molecular target: T1, FcgRIa
FcgRIIb [1] = molecular target: T2, FcgRIIb
FcgRIIIa V = FcgRIIIa V (human, UniProt P08637)
FcgRIIa R = molecular target: T3, FcgRIIa R
FcgRIIa H = molecular target: T4, FcgRIIa H
FcgRIIIa F [2] = molecular target: T5, FcgRIIIa F (human, UniProt P08637)
FcgRIIIa F [3] = molecular target: T5, FcgRIIIa F; remark: listed apart in the source
FcgRIIb [4] = molecular target: T2, FcgRIIb

T5 sequence (P08637 17-208): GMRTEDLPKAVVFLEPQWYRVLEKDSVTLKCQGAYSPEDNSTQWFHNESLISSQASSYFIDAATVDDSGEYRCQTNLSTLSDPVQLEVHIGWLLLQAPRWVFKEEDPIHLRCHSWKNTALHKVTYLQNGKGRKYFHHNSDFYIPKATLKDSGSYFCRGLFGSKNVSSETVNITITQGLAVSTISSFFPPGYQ
FcgRIIIa V, sequence (P08637 17-208 F176V): as the sequence (P08637 17-208) above, with F160V counted along it

| Binder | Kd (FcgRIa) [nM] | Kd (FcgRIIb [1]) [nM] | Kd (FcgRIIIa V) [nM] | Kd (FcgRIIa R) [nM] | Kd (FcgRIIa H) [nM] | Kd (FcgRIIIa F [2]) [nM] | Kd (FcgRIIIa F [3]) [nM] | Kd (FcgRIIb [4]) [nM] |
| --- | --- | --- | --- | --- | --- | --- | --- | --- |
| H240-Kn179/H240-Hl068/L73-k0 (antibody) chain 1: QDQLVQSGAEVKKPGASVKVSCKASGFNIKDTYIQWVRQAPGQGLEWMGRIDPLRKQTKYREKFEGRVTITADTSTNTAYMELSSLRSEDTAVYYCVRSGREFDYWGQGTLVTVSSASTKGPSVFPLAPSSKSTSGGTAALGCLVKDYFPEPVTVSWNSGALTSGVHTFPAVLQSSGLYSLSSVVTVPSSSLGTQTYICNVNHKPSNTKVDKKVEPKSCDKTHTCPPCPAPEYYWGPMVFLFPPKPKDTLMISRTPEVTCVVVDVSDEDPEVKFNWYVDGVEVHNAKTKPREKQYNATYRVVSVLTVLHQDWLNGKEYKCKVSNKDLPAPIEKTISKAKGQPREPQVCTLPPSRDELTKNQVSLWCLVKGFYPSDIAVEWESNGQPENNYKTTPPVLDSDGSFFLYSKLTVDKSRWQQGNVFSCSVMHEALHNHYTQKSLSLSP chain 2: QDQLVQSGAEVKKPGASVKVSCKASGFNIKDTYIQWVRQAPGQGLEWMGRIDPLRKQTKYREKFEGRVTITADTSTNTAYMELSSLRSEDTAVYYCVRSGREFDYWGQGTLVTVSSASTKGPSVFPLAPSSKSTSGGTAALGCLVKDYFPEPVTVSWNSGALTSGVHTFPAVLQSSGLYSLSSVVTVPSSSLGTQTYICNVNHKPSNTKVDKKVEPKSCDKTHTCPPCPAPELLGGPSVFLFPPKPKDTLMISRTPEVTCVVVDVSHEEPEVKFNWYVDGVEVHNAKTKPREEQYNSTYRVVSVLTVLHQDWLNGKEYKCKVSNDALPKPIEETISKAKGQPREPQVYTLPPSRCELTKNQVSLSCAVKGFYPSDIAVEWESNGQPENNYKTTPPVLDSDGSFFLVSKLTVDKSRWQQGNVFSCSVMHEALHNHYTQKSLSLSP chain 3: DIQMTQSPSSLSASVGDRVTITCRASQDIHKYIAWYQQKPGQAPRLLIQYTSTLQPGVPSRFSGSGSGTDYTFTISSLQPEDIATYYCLQYEQLRTFGGGTKVEIKRTVAAPSVFIFPPSDEQLKSGTASVVCLLNNFYPREAKVQWKVDNALQSGNSQESVTEQDSKDSTYSLSSTLTLSKADYEKHKVYACEVTHQGLSSPVTKSFNRGEC | 0.3 | 260 | 0.98 | 26 | 41 | 4.8 | – | – |
| GpH7-TA7/GpH7-TA45/GpL16-k0 (antibody) chain 1: QVQLVQSGAEVKKPGASVTVSCKASGYTFTDYEMHWIRQPPGEGLEWIGAIDPKTGDTAYSESFQDRVTLTADKSTSTAYMELSSLTSEDTAVYYCTRFYSYTYWGQGTLVTVSSASTKGPSVFPLAPSSKSTSGGTAALGCLVKDYFPEPVTVSWNSGALTSGVHTFPAVLQSSGLYSLSSVVTVPSSSLGTQTYICNVNHKPSNTKVDKKVEPKSCDKTHTCPPCPAPEYLWGPSVFLFPPKPKDTLMISRTPEVTCVVVDVSHEDPEVKFNWYVDGVEVHNAKTKPREEQYNATYRVVSVLTVLHQDWLNGKEYKCKVSNKALPAPIEKTISKAKGQPREPQVYTLPPSRKELTKNQVSLTCLVKGFYPSDIAVEWESNGQPENNYKTTPPVLDSDGSFFLYSKLTVDKSRWQQGNVFSCSVMHEALHNRYTQKSLSLSP chain 2: QVQLVQSGAEVKKPGASVTVSCKASGYTFTDYEMHWIRQPPGEGLEWIGAIDPKTGDTAYSESFQDRVTLTADKSTSTAYMELSSLTSEDTAVYYCTRFYSYTYWGQGTLVTVSSASTKGPSVFPLAPSSKSTSGGTAALGCLVKDYFPEPVTVSWNSGALTSGVHTFPAVLQSSGLYSLSSVVTVPSSSLGTQTYICNVNHKPSNTKVDKKVEPKSCDKTHTCPPCPAPEYLWGPSVFLFPPKPKDTLMISRTPEVTCVVVDVSHEDPEVKFNWYVDGVEVHNAKTKPREEQYNATYRVVSVLTVLHQDWLNGKEYKCKVSNKALPAPIEKTISKAKGQPREPQVYTLPPSRDELTKNQVSLTCLVKGFYPSDIAVEWESNGQPENNYKTTPPVLDSDGSFFLYSKLTVDKSRWQQGNVFSCSVMHEALHNHYTQESLSLSP chain 3: DIVMTQSPLSLPVTPGEPASISCQASESLVHSNRNTYLHWYLQKPGQSPQLLIYKVSNRFSGVPDRFSGSGSGTDFTLKISRVEAEDVGVYYCSQNTHVPPTFGQGTKVEIERTVAAPSVFIFPPSDEQLKSGTASVVCLLNNFYPREAKVQWKVDNALQSGNSQESVTEQDSKDSTYSLSSTLTLSKADYEKHKVYACEVTHQGLSSPVTKSFNRGEC | – | – | – | – | – | – | 3300 | 18000 |

Next, values leading:

| Kd (FcgRIa) [nM] | Kd (FcgRIIb [1]) [nM] | Kd (FcgRIIIa V) [nM] | Kd (FcgRIIa R) [nM] | Kd (FcgRIIa H) [nM] | Kd (FcgRIIIa F [2]) [nM] | Kd (FcgRIIIa F [3]) [nM] | Kd (FcgRIIb [4]) [nM] | Binder |
| --- | --- | --- | --- | --- | --- | --- | --- | --- |
| < 0.028 | 210 | 1.8 | 15 | 21 | 8.2 | – | – | H240-Kn120/H240-Hl073/L73-k0 (antibody) chain 1: QDQLVQSGAEVKKPGASVKVSCKASGFNIKDTYIQWVRQAPGQGLEWMGRIDPLRKQTKYREKFEGRVTITADTSTNTAYMELSSLRSEDTAVYYCVRSGREFDYWGQGTLVTVSSASTKGPSVFPLAPSSKSTSGGTAALGCLVKDYFPEPVTVSWNSGALTSGVHTFPAVLQSSGLYSLSSVVTVPSSSLGTQTYICNVNHKPSNTKVDKKVEPKSCDKTHTCPPCPAPEYYWGPMVFLFPPKPKDTLMISRTPEVTCVVVDVSDEDPEVKFNWYVDGVEVHNAKTKPREEQYNATYRVVSVLTVLHQDWLNGKEYKCKVSNKDLPAPIEKTISKAKGQPREPQVCTLPPSRDELTKNQVSLWCLVKGFYPSDIAVEWESNGQPENNYKTTPPVLDSDGSFFLYSKLTVDKSRWQQGNVFSCSVMHEALHNHYTQKSLSLSP chain 2: QDQLVQSGAEVKKPGASVKVSCKASGFNIKDTYIQWVRQAPGQGLEWMGRIDPLRKQTKYREKFEGRVTITADTSTNTAYMELSSLRSEDTAVYYCVRSGREFDYWGQGTLVTVSSASTKGPSVFPLAPSSKSTSGGTAALGCLVKDYFPEPVTVSWNSGALTSGVHTFPAVLQSSGLYSLSSVVTVPSSSLGTQTYICNVNHKPSNTKVDKKVEPKSCDKTHTCPPCPAPELLSGPSVFLFPPKPKDTLMISRTPEVTCVVVDVSHEEPEVKFNWYVDGVEVHNAKTKPREEQYNSTYRVVSVLTVLHQDWLNGKEYKCKVSNDALPKPIEETISKAKGQPREPQVYTLPPSRCELTKNQVSLSCAVKGFYPSDIAVEWESNGQPENNYKTTPPVLDSDGSFFLVSKLTVDKSRWQQGNVFSCSVMHEALHNHYTQKSLSLSP chain 3: DIQMTQSPSSLSASVGDRVTITCRASQDIHKYIAWYQQKPGQAPRLLIQYTSTLQPGVPSRFSGSGSGTDYTFTISSLQPEDIATYYCLQYEQLRTFGGGTKVEIKRTVAAPSVFIFPPSDEQLKSGTASVVCLLNNFYPREAKVQWKVDNALQSGNSQESVTEQDSKDSTYSLSSTLTLSKADYEKHKVYACEVTHQGLSSPVTKSFNRGEC |
| – | – | – | – | – | – | 1600 | 3100 | GpH7-A5/GpH7-B3/GpL16-k0 (antibody) chain 1: not shown chain 2: not shown chain 3: DIVMTQSPLSLPVTPGEPASISCQASESLVHSNRNTYLHWYLQKPGQSPQLLIYKVSNRFSGVPDRFSGSGSGTDFTLKISRVEAEDVGVYYCSQNTHVPPTFGQGTKVEIERTVAAPSVFIFPPSDEQLKSGTASVVCLLNNFYPREAKVQWKVDNALQSGNSQESVTEQDSKDSTYSLSSTLTLSKADYEKHKVYACEVTHQGLSSPVTKSFNRGEC |
| – | – | – | – | – | – | 1200 | 3100 | GpH7-G1d/GpL16-k0 (antibody) chain 1: not shown chain 2: DIVMTQSPLSLPVTPGEPASISCQASESLVHSNRNTYLHWYLQKPGQSPQLLIYKVSNRFSGVPDRFSGSGSGTDFTLKISRVEAEDVGVYYCSQNTHVPPTFGQGTKVEIERTVAAPSVFIFPPSDEQLKSGTASVVCLLNNFYPREAKVQWKVDNALQSGNSQESVTEQDSKDSTYSLSSTLTLSKADYEKHKVYACEVTHQGLSSPVTKSFNRGEC |
